Assay results from publication PMC8188212, “Multi‐Arm PEG/Peptidomimetic Conjugate Inhibitors of DR6/APP Interaction Block Hematogenous Tumor Cell Extravasation” (Advanced Science, 2021).
Square brackets hold non-standard residues; d marks the D form. Side chains are listed from the residue outwards. Ends that are not written are not given here. maleimide = maleimide: 4-arm PEG5k maleimide reacting with the C-terminal Cys thiol

Experiments:
[1] = target: T1, DR6/APP interaction (B16F10, SGC-996, LLC1 TCs on DR6 protein coated plates) (Homo sapiens, UniProt O75509); assay: Cell attachment of TCs to DR6-coated plates; type: cell-based; conditions: 1 h at 37 °C, crystal violet, microplate reader, n = 3
T1 construct: His tag (inferred from RED-tris-NTA labelling of the same purchased protein in the MST assay); purchased Sino Biology, Inc. (Shanghai, China); host or cells: DR6 coated on 96-well plates; tumour cells B16F10, SGC-996, LLC1 carry endogenous APP
T1 sequence (O75509 42-349 limits assumed): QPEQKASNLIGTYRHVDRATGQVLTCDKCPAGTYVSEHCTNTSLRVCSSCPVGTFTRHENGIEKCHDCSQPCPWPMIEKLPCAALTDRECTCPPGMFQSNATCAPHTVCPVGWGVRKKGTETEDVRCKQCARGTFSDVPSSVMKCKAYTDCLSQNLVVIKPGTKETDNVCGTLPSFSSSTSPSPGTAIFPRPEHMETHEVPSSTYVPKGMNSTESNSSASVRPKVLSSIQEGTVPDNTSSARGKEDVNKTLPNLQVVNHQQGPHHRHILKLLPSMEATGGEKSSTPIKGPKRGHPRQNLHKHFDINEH
Procedure: DR6 protein in 50 µL PBS (50 × 10^–9 M) was added into 96‐well plates. The 96‐well plates were incubated for 2 h at 37 °C, followed by drying overnight at 4 °C. Next day, the 96‐well plates were warmly washed three times with PBS, and then blocked by PBS containing 1% BSA for 1 h at 37 °C. The plates were washed three times with PBS. TCs were suspended in serum‐free DMEM at a density of 3 × 10^5 cells mL^–1; 50 µL of the cell suspension was added to wells coated with the DR6‐targeting peptides. Different concentrations of DR6‐targeting peptides or PBS were added into the plates. After incubation at 37 °C for 1 h, non‐adherent cells were gently washed away with PBS, fixed with 4% paraformaldehyde at room temperature for 30 min, washed, stained with 5% crystal violet 50 µL per well for 10 min, gently washed with PBS, and decolorized with 33% acetic acid. The attachment cell number was measured by a microplate reader.^[ ^53 ^]

DR6 protein = target: T2, DR6 protein (Homo sapiens, UniProt O75509); assay: KD of DR6-targeting peptides for binding to DR6 protein by MST
T2 construct: purchased Sino Biology, Inc. (Shanghai, China)
T2 sequence (O75509 42-655): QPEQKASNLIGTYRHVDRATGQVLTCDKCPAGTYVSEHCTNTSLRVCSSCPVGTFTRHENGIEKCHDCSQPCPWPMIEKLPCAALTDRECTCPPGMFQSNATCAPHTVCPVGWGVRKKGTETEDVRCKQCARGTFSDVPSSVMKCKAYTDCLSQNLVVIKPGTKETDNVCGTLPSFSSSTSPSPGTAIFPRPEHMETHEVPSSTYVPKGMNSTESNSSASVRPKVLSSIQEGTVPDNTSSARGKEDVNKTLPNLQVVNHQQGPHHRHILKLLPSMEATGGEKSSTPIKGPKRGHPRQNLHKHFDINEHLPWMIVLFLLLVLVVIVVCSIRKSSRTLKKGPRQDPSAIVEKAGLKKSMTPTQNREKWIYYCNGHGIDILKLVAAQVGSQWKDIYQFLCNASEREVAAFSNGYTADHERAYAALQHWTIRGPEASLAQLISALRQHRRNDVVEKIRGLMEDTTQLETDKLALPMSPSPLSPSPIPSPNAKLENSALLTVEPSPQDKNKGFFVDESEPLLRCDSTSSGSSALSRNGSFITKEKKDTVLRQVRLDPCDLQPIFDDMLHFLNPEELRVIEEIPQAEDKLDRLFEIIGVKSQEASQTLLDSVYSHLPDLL
Procedure: For labeling DR6 protein with Red‐tris‐NTA second‐generation dye, equal volume of DR6 protein (200 × 10^–9 M) and dye (100 × 10^–9 M) were mixed. The solution was incubated for 30 min at room temperature and centrifuged for 10 min at 4 ℃ and 15 000 × g. The DR6 protein was labeled and ready for the binding assay. Prepare 25 µL of the DR6‐targeting peptides at 20 × 10^–6 M and add 10 µL of the PBS‐T into the PCR tubes 2–12. Transfer 20 µL DR6‐targeting peptides into the PCR tube 1 and then transfer 10 µL of the DR6‐targeting peptides from tube 1 to tube 2 with a pipette and mix by pipetting up and down multiple times. Transfer 10 µL to tube 3 and mix. Repeat the procedure for tube 4–12. Add 10 µL of labeled protein to each tube (1–12) and mix by pipetting. The final DR6 protein concentration was 50× 10^−9 M. Load the capillaries and measure the samples by NanoTemper Monolith NT.015.^[ ^51 , ^52 ^]

[2] = test system: TCs over HUVECs monolayer; assay: Transendothelial migration of TCs over HUVEC monolayer; type: cell-based, human; conditions: AHP-DRI-12 and PEG-tAHP-DRI 1 × 10^−6 M (AHP-DRI-12), Nec-1 30 × 10^–6 M, zVAD 100 × 10^–6 M; 48 h; compared with control; n = 3
Procedure: HUVECs (1 × 10^5) in DMEM were added into 24‐well plate transwell upper chambers and the medium was changed every 2 days. Using the EVOM resistance tester, the transendothelial resistance was measured daily. When the TEER resistance value was >200 Ωcm^2, the cells grew into a monolayer of tight connection. 2 × 10^5 GFP‐TCs were added into upper chambers. One milliliter DMEM containing 10% FBS was added into lower chambers overnight. AHP‐DRI‐12 and PEG‐tAHP‐DRI (1 ×10^–6 M AHP‐DRI‐12), Nec‐1 (30 × 10^–6 M), and zVAD (100 × 10^–6 M) were added in upper chambers, respectively. After incubation for 48 h, cells in lower chambers were observed by fluorescence microscope.^[ ^56 ^]

[3] = test system: RIPK1, RIPK3, MLKL and their phosphorylated states in HUVECs; assay: Western blot of necroptosis pathway proteins; type: cell-based, human; conditions: 24 h, 0.1, 1.0, 10 × 10^–6 M AHP-DRI-12
Procedure: Western blot assay was conducted to examine the expression level of RIPK1, RIPK3, MLKL, and their phosphorylated states that were downstream protein of DR6. Briefly, 5 × 10^5 HUVECs were added in six‐well plates and grown overnight. Next day, HUVECs were treated with TSZ, AHP‐DRI‐12, and PEG‐tAHP‐DRI (0.1 × 10^–6, 1.0 × 10^–6, 10 × 10^–6 M AHP‐DRI‐12), respectively. After incubating for 24 h, HUVECs were washed with PBS, harvested, and mixed with 150 µL cell lysate buffer/well (Beyotime, China). Protein samples were collected after incubation at 4 ℃ for 30 min. Protein samples were centrifuged at 4 °C and 12 000 rpm for 10 min, and the supernatant was collected as samples. Each sample was then separated by 12% SDS–PAGE, followed by transferring to polyvinylidene difluoride membranes. Finally, samples were incubated with antibodies. HRP‐labeled secondary antibodies were added and measured using an imaging system.

disruption of attachment between TCs and DR6-coated plates [1]: most obvious disruption of attachment
Kd (DR6 protein; RED-tris-NTA labeled DR6 protein, final 50 × 10^−9 M, PBS-T, main text and Figure 2B-D, read-out: KD): ~50 nM
binding affinity to DR6 relative to AHP-DRI-12 (DR6 protein; from KD values): almost fourfold greater binding affinity
Substance: PEG-tAHP-DRI: tetra-(D-retro-inverso isomer of AHP-12) substitued 4-arm PEG5k ([dP][dT][dT][dA][dD][dI][dT]C([maleimide-4‑arm PEG5k]); also: four peptides on one 4-arm PEG5k)
TCs transendothelial migration [2]: significantly attenuated TCs transendothelial migration
native activation of necroptosis pathway (expression levels of p-RIPK1, p-RIPK3, p-MLKL) [3]: could not initialize necroptosis pathway
